The values below come from PMC5117808 (Nature chemical biology, 2016).

No end group written: not given here.

B1: MdnB (ATP-grasp macrocyclase, microviridin J pathway, Microcystis aeruginosa MRC) (enzyme)
chain: MKESPKVVLLLTHSGDFFTIDRVAEAIEKKGATPFRLDTDKFPLEVQLTAQFNGKKSFYQLSYNHQSIDSEQVQSVWTRRIWQPELTGDLDPQFREVCVRESQTTLAGFWDSLRSARWLDNLAQIEKAKNKLLQLRLASEVGLIIPPTLVTNNPDAAREFFSQVQGRMVSKLLTAIARSMESPEFFLYTSRVKAEDLEEAESLRYCPMVFQAEIPKQLELRVVVVNGQTFVGALESSQYNNSAVDWRRPGIDPGAWQHHTLPDSLLQQLQIFMANLGLNFGAFDFILTPGGEYVFLEVNPGGEWGMLERDLDLPISQAIADFLVFG

For one data set, the target named is T1, MdnB (Microcystis aeruginosa MRC, UniProt B2G3C9).
T1 sequence (B2G3C9 1-326): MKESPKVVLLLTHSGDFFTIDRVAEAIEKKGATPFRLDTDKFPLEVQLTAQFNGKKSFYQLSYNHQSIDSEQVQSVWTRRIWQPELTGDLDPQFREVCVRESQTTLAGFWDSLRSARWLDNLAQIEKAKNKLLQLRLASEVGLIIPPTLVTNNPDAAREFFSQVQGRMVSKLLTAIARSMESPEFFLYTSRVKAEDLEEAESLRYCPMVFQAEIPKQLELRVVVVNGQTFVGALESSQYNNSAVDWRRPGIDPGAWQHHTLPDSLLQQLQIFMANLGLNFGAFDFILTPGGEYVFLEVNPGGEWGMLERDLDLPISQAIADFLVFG
Briefly: ITC binding of MdnA peptides to MdnB.

Another data set concerns the target T2, MdnC (Microcystis aeruginosa MRC, UniProt B2G3D0).
T2 sequence (B2G3D0 1-324): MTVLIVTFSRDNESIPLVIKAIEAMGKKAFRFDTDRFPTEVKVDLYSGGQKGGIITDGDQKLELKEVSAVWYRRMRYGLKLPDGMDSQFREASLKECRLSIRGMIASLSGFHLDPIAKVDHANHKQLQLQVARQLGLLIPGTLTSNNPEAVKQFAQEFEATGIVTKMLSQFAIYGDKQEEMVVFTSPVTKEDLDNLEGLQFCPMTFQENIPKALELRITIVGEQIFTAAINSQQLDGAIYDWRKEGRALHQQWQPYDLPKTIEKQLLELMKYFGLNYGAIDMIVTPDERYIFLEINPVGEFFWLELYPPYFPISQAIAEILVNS
Format: binding. The following applies: ITC.

The target in data set [1] is MdnC (ATP-grasp macrocyclase, microviridin J pathway, Microcystis aeruginosa MRC) (Microcystis aeruginosa MRC). Briefly: ITC. (In general: Isothermal titration calorimetry measures the heat released or taken up as one component is titrated into another.)
Data set [2] has the same target. Briefly: SEC + native gel or EMSA. In general terms: Mobility shift assays separate free from complexed probe on a gel.
In data set [3] the target is MdnC (Microcystis aeruginosa MRC). Briefly: SEC.
For data set [4] the target is unchanged. Briefly: crystal structure.
A further data set has as its system Daphnia. The following applies: through inhibition of serine-type proteases; cited from earlier work.
The data set “SEC + native gel or EMSA” deals with the molecule itself. Briefly: SEC + native gel or EMSA.
Data set [5] deals with B1. Briefly: ITC.

In general, Kd refers to the free concentration of one partner at which half of the binding sites on the other are occupied at equilibrium, for simple one-to-one binding. A lower Kd goes with higher affinity. By stoichiometry N is commonly meant a count of units in the complex or per binding partner.

Consider `Nc1ncnc2c1ncn2[C@@H]1O[C@H](COP(=O)(O)OP(=O)(O)OP(=O)(O)O)[C@@H](O)[C@H]1O` [ATP], for which, on MdnB, the “Binding to MdnB, in words” value is listed as “neither MdnC nor MdnB show an observable heat change”. In addition, the “Binding to MdnC, in words” value on MdnC is on record as “neither MdnC nor MdnB show an observable heat change”.
Regarding “Full-length MdnA (residues 1-49), microviridin J precursor peptide (from UniProt B2G3C8 1-49)”, in data set [1], the Kd is 112 nM.
On to “MdnC (ATP-grasp macrocyclase, microviridin J pathway, Microcystis aeruginosa MRC) (enzyme)”, for which the stoichiometry N in [2] stood at 2.
In the case of MdnC (enzyme), the stoichiometry N in data set [3] and in [4] was 2 each time.
In the case of microviridin J, the “Effect on Daphnia” value with Daphnia was “lethal molting disruption”.
Regarding B1, the “stoichiometry N” value in “SEC + native gel or EMSA” amounted to 2.
Take GKALPFFARFLSVS (not fully specified) [MdnA[9-22], minimal peptide containing the conserved region of the leader peptide]: the Kd in data set [1] amounted to 308 nM.
The molecule MAYPNDQQGKALPFFARFLSVSKEESSIKSPSPDH (not fully specified) showed a Kd in [1] of 146 nM.
As for MAYPNDQQGKALPFFARFLSVSKEESSIKSPSPDH, the Kd in data set [5] was 2800 ± 800 nM.
As to MAYPNDQQGKALPFFARFLSVSKEESSIKSPSPDHEISTRKYPSDWEEW [Full-length MdnA (residues 1-49), microviridin J precursor peptide], the Kd in data set [5] came out at 4800 ± 1000 nM.
Take MAYPNDQQGKALPFFARFLSVSKEESSIKSPSPDHEISTRKYPSDWEEW (two macrolactone rings, Thr39/Asp45 and Ser43/Glu47 (installed by MdnC)) [MdnAΔ2, dicyclic intermediate of MdnA]: the Kd in data set [5] is 6400 ± 2000 nM.
